Data set [1] has as its target T1, MBP-Mzfp1 full-length (Drosophila melanogaster, UniProt Q1LZ24 1-586).
T1 sequence: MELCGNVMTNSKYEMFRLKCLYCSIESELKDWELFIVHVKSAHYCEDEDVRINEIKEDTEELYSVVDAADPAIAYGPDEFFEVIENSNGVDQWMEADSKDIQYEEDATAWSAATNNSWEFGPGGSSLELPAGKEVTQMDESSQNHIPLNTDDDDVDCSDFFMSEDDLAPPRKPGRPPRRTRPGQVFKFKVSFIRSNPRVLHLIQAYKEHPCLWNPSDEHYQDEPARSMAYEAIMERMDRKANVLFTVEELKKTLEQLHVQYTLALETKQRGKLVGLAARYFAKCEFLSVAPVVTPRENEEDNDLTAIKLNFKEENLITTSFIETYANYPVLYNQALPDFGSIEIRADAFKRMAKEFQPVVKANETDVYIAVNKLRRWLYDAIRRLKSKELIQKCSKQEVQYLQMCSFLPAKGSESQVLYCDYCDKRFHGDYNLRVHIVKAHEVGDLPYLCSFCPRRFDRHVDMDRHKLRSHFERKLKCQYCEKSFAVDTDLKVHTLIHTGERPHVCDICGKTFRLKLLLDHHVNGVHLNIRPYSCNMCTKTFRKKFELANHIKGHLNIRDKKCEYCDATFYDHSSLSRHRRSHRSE
The experiment in a line: EMSA; 0.1 mM ZnSO4, 5 mM MgCl2, poly(dI-dC); PBS pH 8.0, 5 mM MgCl2, 0.1 mM ZnSO4, 1 mM DTT, 0.1% NP-40, 10% glycerol, poly(dI-dC), room temperature, 30 min; 5% native PAGE in 0.5x TBE. Conditions: protein: recombinant; tags: N-terminal MBP; label: Cy5; blunt.

The target in data set [2] is T2, MBP-Mzfp1 MADF1-MADF2 (Drosophila melanogaster, UniProt Q1LZ24 100-434).
T2 sequence: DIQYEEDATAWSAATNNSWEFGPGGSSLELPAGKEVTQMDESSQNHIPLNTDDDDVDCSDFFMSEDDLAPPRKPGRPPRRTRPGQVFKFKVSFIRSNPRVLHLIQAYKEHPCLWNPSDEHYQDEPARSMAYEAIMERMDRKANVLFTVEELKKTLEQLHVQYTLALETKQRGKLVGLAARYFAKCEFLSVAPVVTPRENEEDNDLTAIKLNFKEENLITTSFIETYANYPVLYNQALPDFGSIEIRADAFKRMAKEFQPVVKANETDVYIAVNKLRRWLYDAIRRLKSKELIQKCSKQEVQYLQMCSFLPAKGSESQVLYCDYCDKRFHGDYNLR
Put plainly: EMSA; no specific binding; 0.1 mM ZnSO4, poly(dI-dC); PBS pH 8.0, 5 mM MgCl2, 0.1 mM ZnSO4, 1 mM DTT, 0.1% NP-40, 10% glycerol, poly(dI-dC), room temperature, 30 min; 5% native PAGE in 0.5x TBE. The following applies: protein: recombinant; tags: MBP; label: Cy5; blunt. (Mobility shift assays separate free from complexed probe on a gel.)

B1: Mzfp1x4 (dsDNA)
DNA 1: GAATTCTAAGCTCTTTGTCGATATCTTGACACACCTATATGATTACTAAGCTCTTTGTCGATATCTTGACACACCTATATGAATTCTAAGCTCTTTGTCGATATCTTGACACACCTATATGATTACTAAGCTCTTTGTCGATATCTTGACACACCTATATGAATTCCTGCAG
DNA 2: CTGCAGGAATTCATATAGGTGTGTCAAGATATCGACAAAGAGCTTAGTAATCATATAGGTGTGTCAAGATATCGACAAAGAGCTTAGAATTCATATAGGTGTGTCAAGATATCGACAAAGAGCTTAGTAATCATATAGGTGTGTCAAGATATCGACAAAGAGCTTAGAATTC
B1: the binding result is listed as “binds” in data set [1] and “no binding” in data set [2].

The values above are taken from paper PMC11229372, “New Drosophila promoter-associated architectural protein Mzfp1 interacts with CP190 and is required for housekeeping gene expression and insulator activity”.
